This passage reports EC50 results from the supplement of paper PMC6379048.

Holding throughout (experiment): EC50 of free RNA motif oligo competing protein binding to immobilised probe
One data set has as its target T1, C1QBP (UniProt Q07021).
T1 sequence: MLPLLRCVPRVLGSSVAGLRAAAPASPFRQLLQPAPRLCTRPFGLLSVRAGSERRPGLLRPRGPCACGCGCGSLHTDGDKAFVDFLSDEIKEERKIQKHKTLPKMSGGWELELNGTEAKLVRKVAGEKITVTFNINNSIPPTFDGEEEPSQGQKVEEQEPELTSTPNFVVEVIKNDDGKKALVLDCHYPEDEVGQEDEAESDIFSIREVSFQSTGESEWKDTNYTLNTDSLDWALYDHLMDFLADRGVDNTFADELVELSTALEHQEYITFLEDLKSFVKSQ
In short, it runs like this: (§1)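 To obtain EC50, data were fitted with a four-parameter log-logistic model; Kd was then EC50 multiplied by a protein-dependent depletion factor. Beforehand, free RNA oligos (0 nM to 30 μM) were pre-incubated with HEK293-FT lysate (2.5 mg protein/well) for 1 h at 4°C. The lysate then spent 30 min at 4°C with the same 5′-amino-C6 oligos coupled to NHS-Sepharose beads, and bound proteins were quantified by label-free LC-MS/MS, normalised to the control.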

For another data set, the target named is CSNK2B (UniProt P67870). In short, it runs like this: as §1
A further data set addresses T2, PUF60 (UniProt Q9UHX1).
T2 sequence: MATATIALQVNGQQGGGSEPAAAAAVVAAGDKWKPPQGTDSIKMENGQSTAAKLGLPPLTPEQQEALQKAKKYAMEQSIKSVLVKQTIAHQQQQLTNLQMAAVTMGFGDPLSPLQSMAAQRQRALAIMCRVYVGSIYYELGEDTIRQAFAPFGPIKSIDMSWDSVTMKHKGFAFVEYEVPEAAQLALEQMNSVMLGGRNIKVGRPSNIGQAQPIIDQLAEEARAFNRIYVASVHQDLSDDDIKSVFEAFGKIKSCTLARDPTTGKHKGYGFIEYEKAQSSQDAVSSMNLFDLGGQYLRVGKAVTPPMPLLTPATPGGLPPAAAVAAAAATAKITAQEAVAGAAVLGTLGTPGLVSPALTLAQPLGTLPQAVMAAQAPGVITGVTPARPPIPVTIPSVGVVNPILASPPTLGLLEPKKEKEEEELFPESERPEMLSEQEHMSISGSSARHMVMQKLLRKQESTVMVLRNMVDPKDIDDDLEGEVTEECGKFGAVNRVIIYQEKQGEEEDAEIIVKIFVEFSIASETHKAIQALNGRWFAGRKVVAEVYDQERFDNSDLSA
The gist of the method: as §1

For the next data set, the target named is IGF2BP1 (UniProt Q9NZI8). In short, it runs like this:
as §1

A further data set concerns the target MRPL17 (UniProt Q9NRX2). In short, it runs like this:
as §1

The next data set has as its target MRPL48 (UniProt Q96GC5). The gist of the method: as §1
In a further data set the target is MRPL49 (UniProt Q13405). The gist of the method: as §1
The target in the next data set is RPS5 (UniProt P46782). In short, it runs like this: as §1
Another data set concerns the target RPSA (UniProt P08865). In short, it runs like this:
as §1

In the next data set the target is T3, HNRNPA0 (UniProt Q13151).
T3 sequence: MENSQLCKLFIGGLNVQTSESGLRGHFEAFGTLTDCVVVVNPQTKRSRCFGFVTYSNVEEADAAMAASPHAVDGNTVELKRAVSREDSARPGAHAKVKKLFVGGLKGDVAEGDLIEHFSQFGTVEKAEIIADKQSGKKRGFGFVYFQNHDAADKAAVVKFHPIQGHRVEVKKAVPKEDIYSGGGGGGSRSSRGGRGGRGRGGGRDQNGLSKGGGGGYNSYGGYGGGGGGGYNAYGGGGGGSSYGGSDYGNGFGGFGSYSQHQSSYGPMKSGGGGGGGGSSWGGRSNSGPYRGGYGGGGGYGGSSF
In short, it runs like this: as §1

In the next data set the target is T4, HNRNPM (UniProt P52272).
T4 sequence: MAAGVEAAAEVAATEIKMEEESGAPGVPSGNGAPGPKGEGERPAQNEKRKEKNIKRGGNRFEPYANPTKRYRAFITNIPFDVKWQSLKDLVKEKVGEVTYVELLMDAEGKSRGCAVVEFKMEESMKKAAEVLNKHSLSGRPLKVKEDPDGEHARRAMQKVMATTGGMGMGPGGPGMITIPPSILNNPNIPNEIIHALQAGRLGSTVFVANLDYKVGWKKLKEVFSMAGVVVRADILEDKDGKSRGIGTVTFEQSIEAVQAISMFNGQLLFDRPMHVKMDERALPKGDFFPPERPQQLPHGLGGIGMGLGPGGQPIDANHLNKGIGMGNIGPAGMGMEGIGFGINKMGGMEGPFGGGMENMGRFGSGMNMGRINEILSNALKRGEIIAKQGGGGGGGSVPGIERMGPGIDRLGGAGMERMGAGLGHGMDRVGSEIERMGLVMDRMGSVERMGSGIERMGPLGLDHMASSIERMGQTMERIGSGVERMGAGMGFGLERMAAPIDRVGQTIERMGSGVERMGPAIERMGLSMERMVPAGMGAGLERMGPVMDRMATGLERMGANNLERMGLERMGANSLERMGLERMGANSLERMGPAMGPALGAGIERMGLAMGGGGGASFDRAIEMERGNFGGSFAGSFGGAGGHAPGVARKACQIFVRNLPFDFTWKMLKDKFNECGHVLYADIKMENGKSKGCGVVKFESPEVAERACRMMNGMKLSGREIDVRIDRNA
The gist of the method: as §1

For the next data set, the target named is MRPS2 (UniProt Q9Y399). The gist of the method: as §1

pEC50: −log10 of the molar value.

Chain of CSNK2B (P67870 whole entry): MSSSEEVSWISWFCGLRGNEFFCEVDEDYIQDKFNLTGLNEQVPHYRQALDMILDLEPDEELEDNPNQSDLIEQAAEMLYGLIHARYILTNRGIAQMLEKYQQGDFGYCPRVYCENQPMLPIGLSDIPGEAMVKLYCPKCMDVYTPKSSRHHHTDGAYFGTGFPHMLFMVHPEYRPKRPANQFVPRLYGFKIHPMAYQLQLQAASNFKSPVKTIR
Chain of IGF2BP1 (Q9NZI8 whole entry): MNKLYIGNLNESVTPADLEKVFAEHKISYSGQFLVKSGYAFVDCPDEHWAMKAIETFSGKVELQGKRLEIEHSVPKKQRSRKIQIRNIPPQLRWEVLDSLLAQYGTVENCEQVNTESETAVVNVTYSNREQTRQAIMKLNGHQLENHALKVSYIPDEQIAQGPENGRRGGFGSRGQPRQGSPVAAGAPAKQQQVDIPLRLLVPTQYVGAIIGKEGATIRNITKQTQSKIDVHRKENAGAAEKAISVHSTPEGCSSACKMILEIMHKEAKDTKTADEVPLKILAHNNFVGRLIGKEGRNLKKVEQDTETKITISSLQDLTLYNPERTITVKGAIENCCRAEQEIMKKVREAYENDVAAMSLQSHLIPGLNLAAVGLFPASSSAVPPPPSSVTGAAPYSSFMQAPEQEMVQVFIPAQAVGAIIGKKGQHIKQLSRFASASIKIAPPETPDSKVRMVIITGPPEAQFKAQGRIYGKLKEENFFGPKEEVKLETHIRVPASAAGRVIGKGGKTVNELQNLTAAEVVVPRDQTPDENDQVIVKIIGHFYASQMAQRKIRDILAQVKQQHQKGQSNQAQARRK

For the sequence AAUAAA, the values for the pEC50 with C1QBP, with CSNK2B and with PUF60 were 5.83, 5.45 and 6.05, respectively.

In the case of CUGUCCU, the pEC50 (usually the negative decadic logarithm of the EC50, by convention in mol/L) is 5.43 with IGF2BP1; 7.28 with MRPL17; 6.75 with MRPL48; 6.96 in the data set with MRPL49; 6.52 with RPS5; 6.31 with RPSA.

In the case of UAUUUAU, the pEC50 with HNRNPA0 is 5.31; with HNRNPM, 5.17; with MRPS2 it was 7.54.
